From US20130109846A1 (published 2013)

B1: 1h-239-891(D70C) 30K linear PEG (other)
VL: DIQMTQSPSSLSASVGDRVTITCRASRPIWPFLEWYQQKPGKAPKLLIYFTSRLRHGVPSRFSGSGSGTCFTLTISSLQPEDFATYYCLQNVANPATFSQGTKVEIKR
modifications: 30 kDa linear PEG; engineered cysteine D70C
B2: 1h-239-891(D70C) 40K branched PEG (other)
VL: B1 VL
modifications: 40 kDa branched PEG; engineered cysteine D70C

Tests used:
Experiment in all cases: cell-based or functional assay
human CD28 [1] = molecular target: T1, human CD28 (human, UniProt P10747 19-220)
human CD28 [2] = molecular target: T1, human CD28; remark: listed apart in the source
human CD28 [3] = molecular target: T1, human CD28; remark: listed apart in the source
human CD28 [4] = molecular target: T1, human CD28; remark: listed apart in the source

| Binder | IFNγ (EC50 nM), DC-driven MLR (human CD28 [1]) [nM] | IL-2 (EC50 nM), DC-driven MLR (human CD28 [1]) [nM] | TNFα (EC50 nM), DC-driven MLR (human CD28 [1]) [nM] | DC-MLR Assay (EC50 nM) (human CD28 [2]) [nM] | CD80 CHO (EC50 nM), T cell proliferation (human CD28 [3]) [nM] | CD86 CHO (EC50 nM), T cell proliferation (human CD28 [3]) [nM] | EC50 of T cell proliferation, Monocytes as APC (human CD28 [4]) |
| --- | --- | --- | --- | --- | --- | --- | --- |
| B1 | 0.6 | 0.6 | 0.6 | 1.2 | 1 | 0.5 | – |
| B2 | 2.5 | 1.5 | 1.7 | 2.3 | 0.4 | 0.4 | 10 |
